Data published in US20240182536A1 (MURAL ONCOLOGY, published 2024).
Positions count from the first letter of the chain named. Names may count otherwise.

B1: IL-18 variant G3L, E6Y, D54T, T63S, N91Y, R104Q (ligand)
chain: YFLKLYSKLSVIRNLNDQVLFIDQGNRPLFEDMTDSDMRDNAPRTIFIISMYKTSQPRGMAVSISVKSEKISTLSSENKIISFKEMNPPDYIKDTKSDIIFFQQSVPGHDNKMQFESSSYEGYFLASEKERDLFKLILKKEDELGDRSIMFTVQNED
B2: IL-18 variant G3P, E6H, N91L (ligand)
chain: B1 chain with L3P, Y6H, T54D, S63T, Y91L, Q104R
B3: IL-18 variant G3P, E6V, K53A, D54W, S55P, T63S, N91L, R104K (ligand)
chain: B1 chain with L3P, Y6V, K53A, T54W, S55P, Y91L, Q104K
B4: IL-18 variant G3Q, E6Q, K53T, D54W, S55F, N91Y (ligand)
chain: B1 chain with L3Q, Y6Q, K53T, T54W, S55F, S63T, Q104R
B5: IL-18 variant G3P, E6H, D54A, S55P, Q56K, T63S, N91M (ligand)
chain: B1 chain with L3P, Y6H, T54A, S55P, Q56K, Y91M, Q104R
B6: IL-18 variant G3P, E6K, D54Y, S55P, T63S, N91S, R104Q (ligand)
chain: B1 chain with L3P, Y6K, T54Y, S55P, Y91S
B7: IL-18 variant G3T, E6Q, K53G, D54G, S55H, T63A, S65T, N91R, R104Q (ligand)
chain: B1 chain with L3T, Y6Q, K53G, T54G, S55H, S63A, S65T, Y91R
B8: IL-18 variant G3P, E6K, D54R, S55P, T63A, N91V (ligand)
chain: B1 chain with L3P, Y6K, T54R, S55P, S63A, Y91V, Q104R
B9: IL-18 variant G3P, E6G, D54T, S55W, N91E, R104K (ligand)
chain: B1 chain with L3P, Y6G, S55W, S63T, Y91E, Q104K
B10: IL-18 variant G3P, E6K, K53M, D54W, S55N, T63S, N91I (ligand)
chain: B1 chain with L3P, Y6K, K53M, T54W, S55N, Y91I, Q104R
B11: IL-18 variant G3D, E6G, K53G, D54A, T63S, N91Y, R104Q (ligand)
chain: B1 chain with L3D, Y6G, K53G, T54A
B12: IL-18 variant G3R, L5W, E6H, D54Y, Q56H, N91R (ligand)
chain: B1 chain with L3R, L5W, Y6H, T54Y, Q56H, S63T, Y91R, Q104R
B13: IL-18 variant G3Q, E6H, K53T, D54S, S55Y, N91Y, R104K (ligand)
chain: B1 chain with L3Q, Y6H, K53T, T54S, S55Y, S63T, Q104K
B14: IL-18 variant G3L, E6S, D54T, T63S, N91Y, R104Q (ligand)
chain: B1 chain with Y6S
B15: IL-18 variant G3S, E6Q, K53S, D54Y, S55H, N91L, R104Q (ligand)
chain: B1 chain with L3S, Y6Q, K53S, T54Y, S55H, S63T, Y91L
B16: IL-18 variant G3P, E6K, D54Y, S55P, T63S, N91S, R104Q, Q154R (ligand)
chain: B1 chain with L3P, Y6K, T54Y, S55P, Y91S, Q154R
B17: IL-18 variant G3P, E6K, D54Y, S55P, Q56H, T63S, N91S, R104Q (ligand)
chain: B1 chain with L3P, Y6K, T54Y, S55P, Q56H, Y91S

The binders below were run against T1, IL-18 binding protein (IL-18BP) (UniProt O95998 31-194) (assay: cell-based or functional assay).
T1 sequence (looked up): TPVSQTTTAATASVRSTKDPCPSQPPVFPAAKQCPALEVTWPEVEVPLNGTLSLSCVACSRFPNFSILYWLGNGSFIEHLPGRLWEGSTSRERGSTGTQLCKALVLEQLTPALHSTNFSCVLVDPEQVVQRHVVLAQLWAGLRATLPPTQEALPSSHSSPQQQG

| Binder | Activity, +100 nM BP, DF-1000002 | Activity, +100 nM BP, DF-5000003 | Activity, +100 nM BP, DF-25000004 | Ratio (-BP/+BP), DF-1000005 | Ratio (-BP/+BP), DF-5000006 | Ratio (-BP/+BP), DF-25000007 |
| --- | --- | --- | --- | --- | --- | --- |
| B1 | 2.04 | 1.92 | 1.45 | 1.05 | 1.05 | 1.17 |
| B2 | 1.52 | 0.93 | 0.33 | 0.95 | 0.97 | 0.87 |
| B3 | 1.21 | 0.57 | 0.18 | 0.98 | 0.9 | 1.04 |
| B4 | 1.14 | 0.45 | 0.14 | 1.08 | 1.21 | 1.2 |
| B5 | 1.24 | 0.61 | 0.19 | 0.97 | 1.03 | 0.9 |
| B6 | 1.8 | 1.35 | 0.77 | 0.97 | 0.97 | 0.93 |
| B7 | 0.49 | 0.18 | 0.11 | 1.19 | 1.03 | 1.14 |
| B8 | 1.34 | 0.73 | 0.28 | 0.98 | 0.92 | 0.79 |
| B9 | 0.33 | 0.12 | 0.08 | 1.09 | 1.06 | 0.97 |
| B10 | 0.65 | 0.2 | 0.09 | 0.98 | 1.07 | 0.91 |
| B11 | 1.33 | 0.73 | 0.19 | 1.02 | 0.98 | 1.14 |
| B12 | 0.32 | 0.11 | 0.08 | 1.25 | 1.09 | 1.01 |
| B13 | 1.48 | 0.88 | 0.29 | 1.03 | 1.08 | 1.08 |
| B14 | 2.06 | 1.95 | 1.44 | 1.02 | 1.02 | 1.2 |
| B15 | 0.51 | 0.2 | 0.1 | 0.95 | 0.81 | 0.88 |
| B16 | 1.51 | 0.81 | 0.39 | 0.99 | 1.16 | 0.93 |
| B17 | 1.69 | 1.08 | 0.54 | 0.96 | 1.02 | 0.98 |

What follows are binders tested against T2, IL-18 receptors on HEK-Blue IL-18 reporter cells (UniProt Q13478 19-541; O95256 20-599, limits assumed) (assay: cell-based or functional assay).
T2 sequence (looked up) 1: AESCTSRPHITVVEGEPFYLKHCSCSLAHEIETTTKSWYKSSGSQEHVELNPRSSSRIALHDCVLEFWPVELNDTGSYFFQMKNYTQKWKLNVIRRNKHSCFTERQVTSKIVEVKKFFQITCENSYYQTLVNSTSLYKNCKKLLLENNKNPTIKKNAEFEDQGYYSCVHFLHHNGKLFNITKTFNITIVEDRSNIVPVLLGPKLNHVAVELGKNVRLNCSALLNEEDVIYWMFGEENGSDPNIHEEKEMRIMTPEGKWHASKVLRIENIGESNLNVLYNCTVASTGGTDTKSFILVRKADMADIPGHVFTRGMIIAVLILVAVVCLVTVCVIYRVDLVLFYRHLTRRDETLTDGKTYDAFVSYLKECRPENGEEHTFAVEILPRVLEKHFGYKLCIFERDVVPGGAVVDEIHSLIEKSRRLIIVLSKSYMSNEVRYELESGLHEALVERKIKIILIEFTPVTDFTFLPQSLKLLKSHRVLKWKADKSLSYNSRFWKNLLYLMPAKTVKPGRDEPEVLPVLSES
T2 sequence (looked up) 2: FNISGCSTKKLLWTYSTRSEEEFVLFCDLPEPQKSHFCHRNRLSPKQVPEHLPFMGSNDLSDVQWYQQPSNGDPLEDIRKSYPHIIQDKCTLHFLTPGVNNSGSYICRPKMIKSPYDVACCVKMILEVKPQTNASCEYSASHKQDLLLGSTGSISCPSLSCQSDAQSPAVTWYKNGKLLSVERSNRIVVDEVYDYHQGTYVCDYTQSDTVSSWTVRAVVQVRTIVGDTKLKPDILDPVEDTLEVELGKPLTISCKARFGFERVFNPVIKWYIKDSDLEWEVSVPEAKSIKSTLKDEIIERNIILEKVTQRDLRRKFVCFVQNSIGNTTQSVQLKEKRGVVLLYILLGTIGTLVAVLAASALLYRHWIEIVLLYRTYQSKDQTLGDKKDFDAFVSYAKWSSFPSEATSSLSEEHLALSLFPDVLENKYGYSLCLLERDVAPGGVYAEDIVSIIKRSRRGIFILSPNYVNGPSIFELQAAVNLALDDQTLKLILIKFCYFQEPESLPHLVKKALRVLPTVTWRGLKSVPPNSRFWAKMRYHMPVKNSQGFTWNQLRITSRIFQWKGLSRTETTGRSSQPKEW

| Binder | Activity, No BP, DF-100000 | Activity, No BP, DF-500000 | Activity, No BP, DF-2500000 |
| --- | --- | --- | --- |
| B1 | 2.14 | 2.02 | 1.69 |
| B2 | 1.45 | 0.9 | 0.29 |
| B3 | 1.18 | 0.52 | 0.19 |
| B4 | 1.23 | 0.54 | 0.17 |
| B5 | 1.2 | 0.63 | 0.17 |
| B6 | 1.75 | 1.32 | 0.72 |
| B7 | 0.58 | 0.18 | 0.12 |
| B8 | 1.31 | 0.67 | 0.22 |
| B9 | 0.35 | 0.13 | 0.07 |
| B10 | 0.64 | 0.21 | 0.08 |
| B11 | 1.36 | 0.72 | 0.21 |
| B12 | 0.39 | 0.12 | 0.08 |
| B13 | 1.52 | 0.95 | 0.31 |
| B14 | 2.11 | 1.98 | 1.73 |
| B15 | 0.49 | 0.16 | 0.08 |
| B16 | 1.49 | 0.94 | 0.36 |
| B17 | 1.63 | 1.1 | 0.53 |
